# B1: hPepT1 (SLC15A1) (Homo sapiens) (protein)
# chain: MGMSKSHSFFGYPLSIFFIVVNEFCERFSYYGMRAILILYFTNFISWDDNLSTAIYHTFVALCYLTPILGALIADSWLGKFKTIVSLSIVYTIGQAVTSVSSINDLTDHNHDGTPDSLPVHVVLSLIGLALIALGTGGIKPCVSAFGGDQFEEGQEKQRNRFFSIFYLAINAGSLLSTIITPMLRVQQCGIHSKQACYPLAFGVPAALMAVALIVFVLGSGMYKKFKPQGNIMGKVAKCIGFAIKNRFRHRSKAFPKREHWLDWAKEKYDERLISQIKMVTRVMFLYIPLPMFWALFDQQGSRWTLQATTMSGKIGALEIQPDQMQTVNAILIVIMVPIFDAVLYPLIAKCGFNFTSLKKMAVGMVLASMAFVVAAIVQVEIDKTLPVFPKGNEVQIKVLNIGNNTMNISLPGEMVTLGPMSQTNAFMTFDVNKLTRINISSPGSPVTAVTDDFKQGQRHTLLVWAPNHYQVVKDGLNQKPEKGENGIRFVNTFNELITITMSGKVYANISSYNASTYQFFPSGIKGFTISSTEIPPQCQPNFNTFYLEFGSAYTYIVQRKNDSCPEVKVFEDISANTVNMALQIPQYFLLTCGEVVFSVTGLEFSYSQAPSNMKSVLQAGWLLTVAVGNIIVLIVAGAGQFSKQWAEYILFAALLLVVCVIFAIMARFYTYINPAEIEAQFDEDEKKNRLEKSNPYFMSGANSQKQM
# Substrate: CN(CC(=O)O)C(=O)CN
# Assay: cells, lysate or membranes
# Type: cell-based, Homo sapiens
protein,measurement,value
B1,Km,1000 ± 200 µM

# From article PMC2428106, “Regulation of intestinal hPepT1 (SLC15A1) activity by phosphodiesterase inhibitors is via inhibition of NHE3 (SLC9A3)” (Biochimica et Biophysica Acta, 2007)
